Our source for the ligation selection enrichment values is the supplement of paper PMC10219994.

B1: library; a variant is named by its letters at N, in order (parent)
chain: GAGACCGCAACTGAAAAGTTGTGGNNNNNATAGTGAGTCGCTGCCTGCAAAGACACAACT

± gives the standard deviation of the averaged measurements.

The series covers variants of B1. Description: ligation selection enrichment (abundance after / before one-round selection) (fold); higher = more template-directed ligation activity. Conditions: with T7Psub CACGGAUGCUAAUACGACUCACUAUA; MgCl2 25 mM; 42 °C; 4 h; pH 8.5. The method in brief: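 RNA ligase library with five randomized core positions (0.75 μM, T7-transcribed) was reacted with RNA substrate (6 μM) in 50 mM EPPS pH 8.5, 25 mM MgCl2 at 42 °C for 4 h, in two independent experiments. Ligated products were PAGE-purified, reverse transcribed, barcoded by PCR and MiSeq-sequenced. Reads with quality score ≥30 at all randomized positions were counted. Enrichment was abundance after ligation divided by abundance before ligation.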
Consider GAGACCGCAACTGAAAAGTTGTGGCGATTATAGTGAGTCGCTGCCTGCAAAGACACAACT, for which the ligation selection enrichment amounted to 4.38 ± 0.59. For the variant GAGACCGCAACTGAAAAGTTGTGGCGATCATAGTGAGTCGCTGCCTGCAAAGACACAACT, the ligation selection enrichment turned out to be 0.294 ± 0.018. With GAGACCGCAACTGAAAAGTTGTGGCGATGATAGTGAGTCGCTGCCTGCAAAGACACAACT the figure was 1.3 ± 0.22. For the variant GAGACCGCAACTGAAAAGTTGTGGCGATAATAGTGAGTCGCTGCCTGCAAAGACACAACT, the ligation selection enrichment turned out to be 1.05 ± 0.21. On to GAGACCGCAACTGAAAAGTTGTGGCGCCAATAGTGAGTCGCTGCCTGCAAAGACACAACT, for which the ligation selection enrichment was 0.146 ± 0.048. As to GAGACCGCAACTGAAAAGTTGTGGCGCCCATAGTGAGTCGCTGCCTGCAAAGACACAACT, the ligation selection enrichment worked out at 0.161 ± 0.004. The value for GAGACCGCAACTGAAAAGTTGTGGCGCCGATAGTGAGTCGCTGCCTGCAAAGACACAACT was 0.43 ± 0.033; that for GAGACCGCAACTGAAAAGTTGTGGCGCCTATAGTGAGTCGCTGCCTGCAAAGACACAACT was 0.779 ± 0.21; that for GAGACCGCAACTGAAAAGTTGTGGGGCAGATAGTGAGTCGCTGCCTGCAAAGACACAACT was 0.55 ± 0.028. In the case of GAGACCGCAACTGAAAAGTTGTGGGGCACATAGTGAGTCGCTGCCTGCAAAGACACAACT, the ligation selection enrichment was 0.395 ± 0.016.

With GAGACCGCAACTGAAAAGTTGTGGGGCATATAGTGAGTCGCTGCCTGCAAAGACACAACT, the ligation selection enrichment was found to be 5.15 ± 1.1.

As for GAGACCGCAACTGAAAAGTTGTGGGGCAAATAGTGAGTCGCTGCCTGCAAAGACACAACT, the ligation selection enrichment came to 0.423 ± 0.11. For GAGACCGCAACTGAAAAGTTGTGGTGAGCATAGTGAGTCGCTGCCTGCAAAGACACAACT, the ligation selection enrichment is 0.156 ± 0.035. GAGACCGCAACTGAAAAGTTGTGGTGAGTATAGTGAGTCGCTGCCTGCAAAGACACAACT: the ligation selection enrichment was 0.221 ± 0.024. GAGACCGCAACTGAAAAGTTGTGGTGAGGATAGTGAGTCGCTGCCTGCAAAGACACAACT: the ligation selection enrichment stood at 0.319 ± 0.074. On to GAGACCGCAACTGAAAAGTTGTGGTGATTATAGTGAGTCGCTGCCTGCAAAGACACAACT, for which the ligation selection enrichment was 2.4 ± 0.61. As to GAGACCGCAACTGAAAAGTTGTGGTGATAATAGTGAGTCGCTGCCTGCAAAGACACAACT, the ligation selection enrichment turned out to be 0.4829 ± 0.0015.

GAGACCGCAACTGAAAAGTTGTGGTGATGATAGTGAGTCGCTGCCTGCAAAGACACAACT: the ligation selection enrichment came to 0.708 ± 0.08.

Take GAGACCGCAACTGAAAAGTTGTGGTGATCATAGTGAGTCGCTGCCTGCAAAGACACAACT: the ligation selection enrichment came out at 0.143 ± 0.062.

For GAGACCGCAACTGAAAAGTTGTGGAGAGTATAGTGAGTCGCTGCCTGCAAAGACACAACT, the ligation selection enrichment worked out at 0.253 ± 0.024.

Consider GAGACCGCAACTGAAAAGTTGTGGAGAGCATAGTGAGTCGCTGCCTGCAAAGACACAACT, for which the ligation selection enrichment stood at 0.196 ± 0.028. With GAGACCGCAACTGAAAAGTTGTGGAGAGGATAGTGAGTCGCTGCCTGCAAAGACACAACT, the ligation selection enrichment was 0.288 ± 0.045. The value for GAGACCGCAACTGAAAAGTTGTGGAGATTATAGTGAGTCGCTGCCTGCAAAGACACAACT was 1.66 ± 0.48; that for GAGACCGCAACTGAAAAGTTGTGGAGATGATAGTGAGTCGCTGCCTGCAAAGACACAACT was 0.602 ± 0.065; that for GAGACCGCAACTGAAAAGTTGTGGAGATCATAGTGAGTCGCTGCCTGCAAAGACACAACT was 0.204 ± 0.0068. Consider GAGACCGCAACTGAAAAGTTGTGGAGATAATAGTGAGTCGCTGCCTGCAAAGACACAACT, for which the ligation selection enrichment was 0.533 ± 0.16. With GAGACCGCAACTGAAAAGTTGTGGTGCGTATAGTGAGTCGCTGCCTGCAAAGACACAACT the figure was 0.168 ± 0.021. Regarding GAGACCGCAACTGAAAAGTTGTGGTGCGAATAGTGAGTCGCTGCCTGCAAAGACACAACT, the ligation selection enrichment is 2.41 ± 0.15.

Turning to GAGACCGCAACTGAAAAGTTGTGGTGCGCATAGTGAGTCGCTGCCTGCAAAGACACAACT, the ligation selection enrichment came to 0.217 ± 0.02.

As for GAGACCGCAACTGAAAAGTTGTGGTGCGGATAGTGAGTCGCTGCCTGCAAAGACACAACT, the ligation selection enrichment worked out at 0.221 ± 0.0095. The value for GAGACCGCAACTGAAAAGTTGTGGGGATTATAGTGAGTCGCTGCCTGCAAAGACACAACT was 1.31 ± 0.31. As to GAGACCGCAACTGAAAAGTTGTGGGGATCATAGTGAGTCGCTGCCTGCAAAGACACAACT, the ligation selection enrichment was 0.188 ± 0.03. GAGACCGCAACTGAAAAGTTGTGGGGATAATAGTGAGTCGCTGCCTGCAAAGACACAACT: the ligation selection enrichment was 0.432 ± 0.027. In the case of GAGACCGCAACTGAAAAGTTGTGGGGATGATAGTGAGTCGCTGCCTGCAAAGACACAACT, the ligation selection enrichment came to 0.732 ± 0.14. On to GAGACCGCAACTGAAAAGTTGTGGTGCCAATAGTGAGTCGCTGCCTGCAAAGACACAACT, for which the ligation selection enrichment amounted to 0.144 ± 0.028. In the case of GAGACCGCAACTGAAAAGTTGTGGTGCCGATAGTGAGTCGCTGCCTGCAAAGACACAACT, the ligation selection enrichment was determined as 0.559 ± 0.02. The value for GAGACCGCAACTGAAAAGTTGTGGTGCCCATAGTGAGTCGCTGCCTGCAAAGACACAACT was 0.1927 ± 0.0019. In the case of GAGACCGCAACTGAAAAGTTGTGGTGCCTATAGTGAGTCGCTGCCTGCAAAGACACAACT, the ligation selection enrichment was 0.408 ± 0.18. Consider GAGACCGCAACTGAAAAGTTGTGGGGCGGATAGTGAGTCGCTGCCTGCAAAGACACAACT, for which the ligation selection enrichment was found to be 0.252 ± 0.022. On to GAGACCGCAACTGAAAAGTTGTGGGGCGAATAGTGAGTCGCTGCCTGCAAAGACACAACT, for which the ligation selection enrichment came to 1.52 ± 0.26.

Take GAGACCGCAACTGAAAAGTTGTGGGGCGCATAGTGAGTCGCTGCCTGCAAAGACACAACT: the ligation selection enrichment was 0.2927 ± 0.0028. GAGACCGCAACTGAAAAGTTGTGGGGCGTATAGTGAGTCGCTGCCTGCAAAGACACAACT: the ligation selection enrichment came to 0.168 ± 0.023. For GAGACCGCAACTGAAAAGTTGTGGAGCGCATAGTGAGTCGCTGCCTGCAAAGACACAACT, the ligation selection enrichment came out at 0.269 ± 0.043. For the variant GAGACCGCAACTGAAAAGTTGTGGAGCGTATAGTGAGTCGCTGCCTGCAAAGACACAACT, the ligation selection enrichment worked out at 0.191 ± 0.054.
